Experimental data reported in patent publication US20240218060A1.
One block for each substance: values may come before it.

How the values were obtained:
[1] = molecular target: human neonatal Fc-receptor (FcRn) (human) (UniProt P55899); assay: FcRn affinity chromatography, anti-HER2 antibody
[2] = molecular target: human neonatal Fc-receptor (FcRn) (human) (UniProt P55899); assay: FcRn affinity chromatography, bispecific KiH antibody
[3] = molecular target: human neonatal Fc-receptor (FcRn) (human) (UniProt P55899); assay: FcRn affinity chromatography of a knobs-into-holes bispecific antibody
[4] = molecular target: human neonatal Fc-receptor (FcRn) (human) (UniProt P55899); assay: FcRn affinity chromatography

Substance: anti-HER2 antibody, symmetric K290H
retention time on FcRn affinity column [1]: 46.2 min

Substance: anti-HER2 antibody, symmetric K317H
retention time on FcRn affinity column [1]: 46.3 min

Substance: bispecific antibody (knobs-into-holes), one chain with M252Y/S254T/T256E
retention time on FcRn affinity column [2]: 56.2 min

Substance: bispecific antibody (knobs-into-holes), one chain with H310A/H433A/Y436A
retention time on FcRn affinity column [2]: 46.7 min

Substance: bispecific antibody (knobs-into-holes), first chain I253A/H310A/H435A, second chain H435A
RT (Min) on the FcRn affinity column [3]: 0 min

Substance: bispecific antibody (knobs-into-holes), one chain with H435A
RT (Min) on the FcRn affinity column [3]: 48.8 min
retention time on FcRn affinity column [2]: 48.8 min

Substance: anti-HER2 antibody, symmetric T256H
retention time on FcRn affinity column [1]: 46 min

Substance: bispecific antibody (knobs-into-holes), first chain I253A/H310A/H435A, second chain H310A
RT (Min) on the FcRn affinity column [3]: 0 min

Substance: bispecific antibody (knobs-into-holes), one chain with I253A
RT (Min) on the FcRn affinity column [3]: 48.8 min
retention time on FcRn affinity column [2]: 48.8 min

Substance: anti-HER2 antibody, symmetric R255D
retention time on FcRn affinity column [1]: 41.4 min

Substance: anti-HER2 antibody, symmetric N434H
retention time on FcRn affinity column [1]: 52 min

Substance: bispecific antibody (knobs-into-holes), one chain with L251D/L314D/L432D
retention time on FcRn affinity column [2]: 46.3 min

Substance: anti-HER2 antibody, symmetric Q311H
retention time on FcRn affinity column [1]: 46.3 min

Further lines, results first:

retention time on FcRn affinity column [1]: 45.6 min
Substance: anti-HER2 antibody, symmetric E258H

retention time on FcRn affinity column [1]: 45.5 min
Substance: anti-HER2 antibody, symmetric L309H

RT (Min) on the FcRn affinity column [3]: 0 min
Substance: bispecific antibody (knobs-into-holes), first chain I253A/H310A/H435A, second chain I253A/H310A/H435A

RT (Min) on the FcRn affinity column [3]: 48.4 min
retention time on FcRn affinity column [2]: 48.4 min
Substance: bispecific antibody (knobs-into-holes), one chain with H310A

FcRn-affinity column retention time [4]: 41.3 min
Substance: IgG1 Fc-region molecule with L234A/L235A/P329G and Y436A (symmetric)

retention time on FcRn affinity column [1]: 45.2 min
Substance: anti-HER2 antibody, symmetric K288E

retention time on FcRn affinity column [1]: 46.4 min
Substance: anti-HER2 antibody, symmetric E430H

retention time on FcRn affinity column [1]: 46.3 min
Substance: anti-HER2 antibody, wild-type
